Data from patent US20230181748A1, “MEANS AND METHODS FOR THE TREATMENT OF PATHOLOGICAL AGGREGATION” (priority 2020, published 2023).

Experiments:
[1] = target: T1, Aβ aggregates (Homo sapiens, UniProt P05067); assay: Aβ biosensor screening assay; type: cell-based; settings: for relative number of cells positive for induced Aβ aggregation (seeding capacity of Aβ seeds): 100 nM Aβ aggregates on cells, concentration range of capping peptide; for capping activity of single capping sequence across all hetero-tandem peptides: analysis of all tandems containing the single sequence (FIG. 22)
T1 construct: mixed with preformed, sonicated Aβ aggregates (2 μM)
T1 sequence (P05067 672-713 limits assumed): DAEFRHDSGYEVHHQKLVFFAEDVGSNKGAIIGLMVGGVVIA
Protocol: Hetero-tandem capping peptides depicted in Table 5 were dissolved in DMSO, filtered and mixed with preformed, sonicated Aβ aggregates (2 μM). This mixture was incubated for approx. 4 hours and transfected into Aβ biosensor cells. Aβ biosensor cells stably express soluble Aβ-mCherry and Aβ aggregation can be induced by transfecting preformed Aβ aggregates in these cells (FIG. 17). The final concentration of Aβ aggregates on the cells is 100 nM and a concentration range of capping peptides was used. In other words, the condition in which no seeds are added is shown as 0, while the condition in which 100 nM Aβ aggregates are added (without capping peptides) is shown as 1.

[2] = target: T2, Aβ fibrils (Homo sapiens, UniProt P05067); assay: in vitro Aβ seeding aggregation assay (Th-T); type: biochemical; settings: fibrils 10 μM preincubated with 50 μM capping peptide approx. 4 hours; 10% added to 10 μM monomeric Aβ
T2 construct: mixed with preformed, sonicated Aβ aggregates (2 μM)
T2 sequence (P05067 672-713 limits assumed): as above
Protocol: Capping peptides from Table 6 were freshly dissolved in DMSO (stock concentration 1 mM) and filtered before the assay. 1 μL peptide capping solution was mixed with 19 μL preformed, sonicated Aβ fibrils (stock concentration 10 μM). As such, this mixture contained 10 μM Aβ fibrils and 50 μM capping peptide and was incubated for approx. 4 hours. Next, freshly dissolved monomeric Aβ was prepared by separation on a column. This monomeric Aβ (final concentration 10 μM) was mixed with 10% of the Aβ fibrils-peptide mixture and Th-T was added to monitor aggregation.

[3] = target: T3, preformed tau aggregates (Homo sapiens, UniProt P10636); assay: tau biosensor seeding assay; type: cell-based; settings: 20 hours after transfection; for fraction of cells with green spots (induced tau aggregation) / fraction of cells with red spots (exogenous preformed tau aggregates): single concentration 500 nM on cells, 200 nM preformed tau aggregates
T3 sequence (P10636 1-441 isoform P10636-8): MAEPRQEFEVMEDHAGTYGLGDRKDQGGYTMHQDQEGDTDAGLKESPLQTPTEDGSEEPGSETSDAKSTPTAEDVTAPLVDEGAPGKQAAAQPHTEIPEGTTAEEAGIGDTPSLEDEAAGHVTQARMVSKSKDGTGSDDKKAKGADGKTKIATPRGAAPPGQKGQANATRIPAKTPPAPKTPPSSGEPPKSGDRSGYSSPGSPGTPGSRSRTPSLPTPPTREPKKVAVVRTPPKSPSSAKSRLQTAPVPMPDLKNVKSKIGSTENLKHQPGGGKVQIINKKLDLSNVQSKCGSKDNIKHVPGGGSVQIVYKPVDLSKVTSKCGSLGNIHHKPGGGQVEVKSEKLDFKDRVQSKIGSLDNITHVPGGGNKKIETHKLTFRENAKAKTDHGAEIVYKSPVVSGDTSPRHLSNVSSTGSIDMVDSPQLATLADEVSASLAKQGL
Protocol: The 33 different non-natural molecules (with a final concentration of 10 μM) were mixed with preformed (sonicated) tau aggregates (with a final concentration of 4 μM). The preformed tau aggregates are labeled with a far-red atto-633 dye to monitor the efficiency of cellular uptake and degradation. After an incubation of 6 hours the resulting non-natural molecule—tau aggregate mixture was transfected in tau biosensor cells (described in Holmes et al (2014) Proc Natl Acad Sci USA. 111(41): E4376-E4385). The tau biosensor cell line is a monoclonal FRET biosensor HEK293T cell line stably expressing both the tau repeat domain (RD) fused to the fluorescent protein CFP and the tau repeat protein fused to the fluorescent protein YFP. Without the addition of preformed tau seeds, the biosensor cells stably express diffuse tau (soluble). However, exposure to exogenous preformed tau aggregates induces tau aggregation, generating a FRET signal with the CFP-YFP pair, intensifying the fluorescent signal in the tau inclusions. The FRET signal allows to distinguish the tau aggregate formation from the monomeric background. The use of phospholipids (e.g. lipofectamine—Source: Thermofisher) for the transfection of exogenous tau aggregates maximizes the aggregate inducing capacity.
The final peptide concentration of the non-natural molecules applied on the cells is 500 nM and the final concentration of preformed tau aggregates is 200 nM. 20 hours after transfection cells were fixed and two readouts were used to quantify the activities of the non-natural molecules: • determination of the fraction of cells with green spots: these are the cells that have induced tau aggregation. • determination of the fraction of cells with red spots: these are the cells that are positive for preformed tau aggregates.
In this example non-natural molecules of the invention were generated based on the sequences of capping peptides CAP1_TR and HET (sequences depicted in column 2 in Table 2). A tau biosensor seeding assay was performed with a concentration range of peptides. Thus, the assay is the same as described in example 2 but now a range of concentrations of capping peptides and non-natural molecules comprising the capping peptides were used to incubate with preformed tau aggregates. FIGS. 6 and 7 depict the final concentration of the peptides and derived non-natural molecules applied on the cells (see FIGS. 6 and 7).

[4] = target: T3, preformed tau aggregates; assay: Microscale Thermophoresis (MST) with preformed tau aggregates; type: binding
Protocol: To measure the affinity of the capping peptides, and non-natural molecules derived thereof, with full length tau, we performed Microscale Thermophoresis (MST, Monolith NT.Automated) experiments. Briefly, atto-633-labeled tau monomers or atto-633-labeled preformed tau aggregates were mixed with a concentration range of capping peptides, and non-natural molecules derived thereof, and MST measurement were performed.

[5] = target: Tau aggregates (Homo sapiens, UniProt P10636); assay: hetero-dimeric tandem capping peptide screen, Tau biosensor cell line; type: cell-based; settings: 625 nM capping peptide, 50 nM Tau seeds, 24 hours
Sequence of Tau aggregates (P10636 1-441 isoform P10636-8): as above

[6] = target: T4, Sup35-NM aggregates (Saccharomyces cerevisiae, UniProt P05453); assay: hetero-dimeric tandem capping peptide screen, NM biosensor cell line; type: cell-based; settings: 625 nM capping peptide, 50 nM NM seeds, 24 hours
T4 sequence (P05453 1-253 limits assumed): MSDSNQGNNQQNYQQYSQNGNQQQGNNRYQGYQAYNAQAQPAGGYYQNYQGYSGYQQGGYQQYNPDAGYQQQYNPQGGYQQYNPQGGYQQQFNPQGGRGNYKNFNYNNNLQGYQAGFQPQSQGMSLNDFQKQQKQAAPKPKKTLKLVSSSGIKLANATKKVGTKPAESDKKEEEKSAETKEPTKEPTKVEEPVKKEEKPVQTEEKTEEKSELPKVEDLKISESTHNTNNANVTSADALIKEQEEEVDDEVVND

[7] = target: T3, preformed tau aggregates; assay: spreading of tau pathology in hTau[P301L] mice; type: in vivo; settings: tau aggregates pretreated 6 hours, injected in hippocampus of hTau[P301L] mice; nine weeks; vs vehicle
Protocol: In an alternative transgenic murine model preformed tau aggregates are pretreated with the non-natural molecule (SEQ ID NO: 22) and after an incubation of 6 hours, this preformed mixture is injected into the hippocampus of young hTau^[P301L] mice (see Kent BA et al (2017) Brain Behay. 8(1) e00896), which haven't developed any tau pathology yet. Nine weeks after injection mice are sacrificed. Immunohistochemical (IHC) quantification of AT8-positive inclusions in the ipsilateral (injection site) and contralateral hippocampus (opposite site) is conducted. Preformed tau aggregates pretreated with a buffer serve as a control vehicle. We observe that the level of tau pathology spread to the contralateral hippocampus is reduced when the non-natural molecule depicted in SEQ ID NO: 22 is applied as compared to the vehicle.

MVWGVVGSKWVFFA (Capping peptide) [AbCap 4]
relative number of cells positive for induced Aβ aggregation (seeding capacity of Aβ seeds) [1]: concentration-dependent effect | seeding capacity of preformed, sonicated Aβ fibrils (Th-T aggregation) [2]: clear effect on the seeding capacity

WQIVYKGSVWMINK [HET]
fraction of cells with green spots (induced tau aggregation) [3]: reduced tau aggregation | fraction of cells with red spots (exogenous preformed tau aggregates) [3]: reduction in exogenous preformed tau aggregates | affinity for tau aggregates compared to tau monomers (MST) ([4]; aggregates versus monomers): higher affinity for tau aggregates compared to tau-monomers | affinity for tau aggregates (MST) ([4]; atto-633-labeled preformed tau aggregates, concentration range): measured affinities are significantly higher compared to CAP1_TR variants

MVWGVVGSKLWFFA (Capping peptide) [AbCAP3]
seeding capacity of preformed, sonicated Aβ fibrils (Th-T aggregation) [2]: clear effect on the seeding capacity

MVWGVV (Capping peptide)
capping activity of single capping sequence across all hetero-tandem peptides [1]: score well at the highest concentrations

VQWINKGSVQMVYK (Capping peptide) [CAP_1E]
fraction of cells with induced aggregates, normalized [5]: most performant peptides | specificity for tau aggregation (a-specific effects in Sup35-NM biosensor line) [6]: specific for inhibiting tau aggregation

GWVVIAGSKLKFFA (Capping peptide) [AbCAP19]
seeding capacity of preformed, sonicated Aβ fibrils (Th-T aggregation) [2]: clear effect on the seeding capacity

WQIVYKGSVWMINKGSGSVKKDQGSKFERQ (HET_CMA2) [HET-CMA2]
fraction of cells with green spots (induced tau aggregation) [3]: reduced tau aggregation | fraction of cells with red spots (exogenous preformed tau aggregates) [3]: reduction in exogenous preformed tau aggregates

RWQIVYKEGSRWQIVYKR [CAP1_TR]
fraction of cells with red spots (exogenous tau aggregates; tau aggregate degradation) ([3]; concentration range of peptide, tau aggregates pre-treated 6 hours): slight reduction in cells positive for red spots in the highest concentration

KLWFFA (Capping peptide)
capping activity of single capping sequence across all hetero-tandem peptides [1]: score well at the highest concentrations

MVGGPVGSKLKFFA (Capping peptide) [AbCap 14]
relative number of cells positive for induced Aβ aggregation (seeding capacity of Aβ seeds) [1]: effect at the highest concentrations

VQWINKGSWQIVYK (Capping peptide) [CAP_1A]
fraction of cells with induced aggregates, normalized [5]: most performant peptides | specificity for tau aggregation (a-specific effects in Sup35-NM biosensor line) [6]: specific for inhibiting tau aggregation

MVWGVVGSKLKFFA (Capping peptide) [AbCAP_2]
seeding capacity of preformed, sonicated Aβ fibrils (Th-T aggregation) [2]: clear effect on the seeding capacity

EQIINKGSFQIVYK (Capping peptide) [CAP_4D]
fraction of cells with induced aggregates, normalized [5]: most performant peptides | specificity for tau aggregation (a-specific effects in Sup35-NM biosensor line) [6]: specific for inhibiting tau aggregation

MVGGVKGSKWVFFP (Capping peptide) [AbCap 11]
relative number of cells positive for induced Aβ aggregation (seeding capacity of Aβ seeds) [1]: effect at the highest concentrations

WQIVYKGSVWMINKGSGSNLLRLTGW (HET_JAV) [HET-JAV]
fraction of cells with green spots (induced tau aggregation) [3]: reduced tau aggregation | fraction of cells with red spots (exogenous preformed tau aggregates) [3]: reduction in exogenous preformed tau aggregates | level of tau pathology spread to the contralateral hippocampus (AT8-positive inclusions, IHC) [7]: reduced

WQIVYKGSVWMINKGSGSKFERQKILDQRFFE (HET_CMA1) [HET-CMA1]
fraction of cells with green spots (induced tau aggregation) [3]: reduced tau aggregation | fraction of cells with red spots (exogenous preformed tau aggregates) [3]: reduction in exogenous preformed tau aggregates
